The source of these data is article PMC6800183 (Journal of biological inorganic chemistry : JBIC : a …, 2019).

Assay [1] deals with T1, [2Fe-2S]-Grx3-Bol2 heterodimer (Saccharomyces cerevisiae, UniProt P53082+Q03835).
T1 sequence (Q03835 1-250): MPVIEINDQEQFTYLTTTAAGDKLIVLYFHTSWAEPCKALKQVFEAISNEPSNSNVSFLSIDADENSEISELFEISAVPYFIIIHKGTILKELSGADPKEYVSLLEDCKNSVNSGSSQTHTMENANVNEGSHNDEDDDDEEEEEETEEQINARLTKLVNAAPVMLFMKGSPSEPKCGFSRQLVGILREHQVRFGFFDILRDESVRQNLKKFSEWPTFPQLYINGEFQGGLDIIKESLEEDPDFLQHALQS
T1 sequence (P53082 1-120): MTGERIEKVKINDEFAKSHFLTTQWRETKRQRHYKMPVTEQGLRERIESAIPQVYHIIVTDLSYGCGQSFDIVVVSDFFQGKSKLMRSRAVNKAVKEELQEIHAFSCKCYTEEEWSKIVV
Description: Bradford, iron and acid-labile sulfide analysis. Type of assay: binding. Conditions: cluster bridges Grx3 and Bol2; pH 8.0, 1 mM GSH, anaerobic.

The target in assay [2] is T2, [2Fe-2S]-Grx3-Bol2 heterodimer (S. cerevisiae, UniProt Q03835 1-250; P53082 1-120).
T2 sequence (looked up) 1: T1 sequence (Q03835 1-250)
T2 sequence (looked up) 2: T1 sequence (P53082 1-120)
Description: heparin chromatography co-elution.

The target in another assay is T3, Grx3 (S. cerevisiae, UniProt Q03835 1-250).
T3 sequence (looked up): T1 sequence (Q03835 1-250)
Description: SEC.

Where a chain is given by its changes, count along the chain named. Numbers in names are those of the source.

For [2Fe-2S] cluster, in assay [1], the “[2Fe-2S] cluster per heterodimer” value is reported as 0.9–1.05 per heterodimer.

B1: Aft2(1–204) C187A (domain or fragment, S. cerevisiae, UniProt Q08957 1-204, looked up)
chain: MKAKSMKSIISVPISVSKTGKMKLTASPDNLASMMSKDQNKLIHLDPVPSFEDRHEIKPWLQKIFYPQGIDIVIERSDSSKVTFKCRSVRSKVGLNPKSKGSSSRSHACPFRIRAAYSVRLQKWNVVVMNNIHSHELRFDLITKTDDYKKFKENLRQKNDEKAIKTFDELEYKASLNLPLVTPIISADCGLTKEIEAFNNIFLP
Take B1: the binding result in assay [2] was “binds”.

B2: Aft2(1–204) C189A (domain or fragment, S. cerevisiae, UniProt Q08957 1-204, looked up)
chain: B1 chain with A187C, C189A
In the case of B2, the binding result in assay [2] is “binds”.

B3: Bol2 (natural protein, S. cerevisiae, UniProt P53082 1-120, looked up)
chain: T1 sequence (P53082 1-120)
As to B3, the binding result with Grx3 is given as “binds”.
